Values quoted from earlier work in PMC10539808.

Target: Lys66 (UniProt position 148, FTKKMKENAKK)
Settings: not stated (quoted literature value; no ligand mentioned)

For “Staphylococcal nuclease (SNase), Delta+PHS/V66K variant (Staphylococcus aureus; P117G;H124L;S128A;del44-49;G50F;V51N;V66K)”, the pKa is given as 5.7 and ∼ 5.6.
